Reference: the Immune Epitope Database (IEDB)
pIC50: −log10 of the molar value.

What was measured:
HLA-A*68:02 [1] = test: IEDB peptide-MHC binding, cellular MHC/competitive/fluorescence; ≥ and ≤ were set here for values at or beyond the usual limits of such assays
HLA-A*02:01 [2] = test: as above; conditions: source organism: Vaccinia virus WR
HLA-A*02:02 = test: as above
HLA-A*02:03 = test: as above
HLA-A*02:06 [3] = test: IEDB peptide-MHC binding, purified MHC/competitive/radioactivity; ≥ and ≤ were set here for values at or beyond the usual limits of such assays
HLA-A*68:02 [4] = test: as above; conditions: source organism: Vaccinia virus WR
HLA-A*02:01 [5] = test: as above
HLA-A*02:06 [6] = test: IEDB peptide-MHC binding, cellular MHC/competitive/fluorescence; ≥ and ≤ were set here for values at or beyond the usual limits of such assays; conditions: source organism: Vaccinia virus WR
[7] = source organism: Vaccinia virus WR
[8] = source organism: Hepacivirus hominis

Row | Sequence | pIC50 (HLA-A*68:02 [1]; [7]) | pIC50 (HLA-A*02:01 [2]) | pIC50 (HLA-A*02:02; [7]) | pIC50 (HLA-A*02:03; [7]) | pIC50 (HLA-A*02:06 [3]; [7]) | pIC50 (HLA-A*68:02 [4]) | pIC50 (HLA-A*68:02 [1]; [8]) | pIC50 (HLA-A*02:02; [8]) | pIC50 (HLA-A*02:03; [8]) | pIC50 (HLA-A*02:01 [5]; [8]) | pIC50 (HLA-A*02:06 [3]; [8]) | pIC50 (HLA-A*02:01 [5]; [7]) | pIC50 (HLA-A*02:06 [6])
1 | FIDRGSIKI | 4.32 | 5.16 | 5.01 | 4.91 | 5.40 |  |  |  |  |  |  |  | 
2 | YVLFVKKML | 4.94 | 5.29 | 4.51 | 4.92 | 5.60 |  |  |  |  |  |  |  | 
3 | IVQLPKRGV |  | 4.82 | 4.92 | 5.06 | 5.51 | 5.37 |  |  |  |  |  |  | 
4 | PIPYSRVNHA | 4.32 | 4.27 | 4.93 | 4.81 | 5.84 |  |  |  |  |  |  |  | 
5 | CAVIPFDDI |  | 4.77 | 4.80 | 5.00 | 5.93 | 7.64 |  |  |  |  |  |  | 
6 | LLLGLLLLCV |  |  |  |  |  |  | 4.24 | 4.77 | 4.99 | 5.66 | 5.30 |  | 
7 | KTNTKHCPKI | 4.70 | 4.44 | 4.47 | 4.96 | 6.63 |  |  |  |  |  |  |  | 
8 | DIIDLLLPST |  |  | 4.84 | 5.18 | 6.55 | 6.79 |  |  |  |  |  | 6.02 | 
9 | TVDFTDCRT |  | 4.47 | 5.01 | 4.57 | 6.47 | 6.21 |  |  |  |  |  |  | 
10 | FTDCRTIDAI |  |  | 5.02 | 4.89 | 6.12 | 6.77 |  |  |  |  |  | 5.74 | 
11 | LALWDSNFFT | ≤ 4.15 |  | 4.96 | 4.70 | 5.90 |  |  |  |  |  |  | 6.09 | 
12 | ETQSGALEVL |  | 5.29 | 5.28 | 4.84 | 5.80 | 7.24 |  |  |  |  |  |  | 
13 | FVVNGHTCM | 5.13 | 4.65 | 5.18 | 5.23 | 5.74 |  |  |  |  |  |  |  | 
14 | LVIRNEVNDT |  | 4.90 | 5.26 | 4.82 | 5.66 | 6.07 |  |  |  |  |  |  | 
15 | VIVPDIKLDA | ≤ 4.15 | 4.65 | 4.48 | 4.67 | 6.05 |  |  |  |  |  |  |  | 
16 | KVIKLVKSLV | 4.79 | 4.60 | 4.85 | 4.87 | 5.67 |  |  |  |  |  |  |  | 
17 | KVEKYLPEVI | ≤ 4.15 | 5.06 | 4.92 | 4.91 | 6.13 |  |  |  |  |  |  |  | 

Row | Sequence | pIC50 (HLA-A*68:02 [1]; [7]) | pIC50 (HLA-A*02:01 [2]) | pIC50 (HLA-A*02:02; [7]) | pIC50 (HLA-A*02:03; [7]) | pIC50 (HLA-A*02:06 [3]; [7]) | pIC50 (HLA-A*68:02 [4]) | pIC50 (HLA-A*68:02 [1]; [8]) | pIC50 (HLA-A*02:02; [8]) | pIC50 (HLA-A*02:03; [8]) | pIC50 (HLA-A*02:01 [5]; [8]) | pIC50 (HLA-A*02:06 [3]; [8]) | pIC50 (HLA-A*02:01 [5]; [7]) | pIC50 (HLA-A*02:06 [6])
18 | DTMRIYCSL |  |  | 5.23 | 5.26 | 5.54 | 8.89 |  |  |  |  |  | 5.47 | 
19 | NVTGFMEEEI |  |  | 4.99 | 5.29 |  | 5.83 |  |  |  |  |  | 5.36 | 4.75
20 | IVPDIKLDA |  | 4.38 | 5.19 | 4.80 | 5.46 | 5.54 |  |  |  |  |  |  | 
21 | RQQLEDIFM | ≤ 4.15 | 5.00 | 5.24 | 4.57 | 6.03 |  |  |  |  |  |  |  | 
22 | DTDIVNNFIT | 5.11 | 5.10 | 5.07 | 5.25 | 5.64 |  |  |  |  |  |  |  | 
23 | IAVSVYGAIT |  |  | 5.10 | 5.03 |  | 5.36 |  |  |  |  |  |  | 4.84
24 | VVECLTVPNI |  |  | 5.07 | 4.71 | 6.52 | 5.43 |  |  |  |  |  | 5.37 | 
25 | KTPVIVVPVI | 4.44 | 4.92 | 5.04 | 5.21 | 5.72 |  |  |  |  |  |  |  | 
26 | VVIVENDNV |  | 4.46 | 4.88 | 4.42 | 5.37 | 6.01 |  |  |  |  |  |  | 
27 | TTNNLLEQLI |  |  | 5.05 | 4.68 |  | 7.14 |  |  |  |  |  | 5.31 | 4.88
28 | GVLPEETNI | 4.92 | 4.76 | 4.76 | 4.69 | 6.24 |  |  |  |  |  |  |  | 
29 | VILPDKIDGL | ≤ 4.15 |  | 5.09 | 4.97 | 6.62 |  |  |  |  |  |  | 5.75 | 
30 | FTHTTAFFNT |  | 5.00 | 4.76 | 4.99 | 7.29 | 5.99 |  |  |  |  |  |  | 
31 | TTENAAYQV |  | 4.53 | ≤ 4.15 | 4.29 | 6.35 | 6.73 |  |  |  |  |  |  | 
32 | STTGEWPLI |  | 5.07 | 4.68 | 4.35 | 5.91 | 6.22 |  |  |  |  |  |  | 
33 | RQLTSNVDV | 4.73 | 5.05 | 4.29 | 5.01 | 6.77 |  |  |  |  |  |  |  | 
34 | CAVNTPVSM |  | 4.31 | 5.20 | 4.80 | 5.82 | 6.30 |  |  |  |  |  |  | 
